Laboratory results taken from PMC6987189, “Native aggregation is a common feature among triosephosphate isomerases of different species” (Scientific Reports, 2020).

Assays:
Assay in all cases: purified protein
Conditions in all cases: GAP to DHAP direction, 25 °C, 100 mM TEA, 10 mM EDTA, 0.2 mM NADH, GAP 0.3 to 3 mM
[1] = substrate: O=C[C@H](O)COP(=O)(O)O; type: biochemical, Saccharomyces cerevisiae
[2] = substrate: O=C[C@H](O)COP(=O)(O)O; type: biochemical, Thermus thermophilus
[3] = substrate: O=C[C@H](O)COP(=O)(O)O; type: biochemical, Trypanosoma cruzi
[4] = substrate: O=C[C@H](O)COP(=O)(O)O; type: biochemical, Trypanosoma brucei
[5] = substrate: O=C[C@H](O)COP(=O)(O)O; type: biochemical, Entamoeba histolytica
[6] = substrate: O=C[C@H](O)COP(=O)(O)O; type: biochemical, Leishmania mexicana
[7] = substrate: O=C[C@H](O)COP(=O)(O)O; type: biochemical, Plasmodium falciparum
[8] = substrate: O=C[C@H](O)COP(=O)(O)O; type: biochemical, Taenia solium

B1: ScTIM (Saccharomyces cerevisiae S288C) (protein)
chain: ARTFFVGGNFKLNGSKQSIKEIVERLNTASIPENVEVVICPPATYLDYSVSLVKKPQVTVGAQNAYLKASGAFTGENSVDQIKDVGAKWVILGHSERRSYFHEDDKFIADKTKFALGQGVGVILCIGETLEEKKAGKTLDVVERQLNAVLEEVKDWTNVVVAYEPVWAIGTGLAATPEDAQDIHASIRKFLASKLGDKAASELRILYGGSANGSNAVTFKDKADVDGFLVGGASLKPEFVDIINSRN
notes: recombinant, E. coli BL21(DE3)pLysS, plasmid pKK233-3, purified; dimer plus higher aggregates
Work on B1 yielded a Km [1] of 790 ± 100 µM, a kcat [1] of 8690 ± 142 s⁻¹ and a kcat/Km [1] of 1.1e+07 M⁻¹ s⁻¹.

B2: TtTIM (Thermus thermophilus HB8) (protein)
chain: MRRVLVAGNWKMHKTPSEARVWFAELKRLLPPLQSEAAVLPAFPILPVAKEVLAETQVGYGAQDVSAHKEGAYTGEVSARMLSDLGCRYAIVGHSERRRYHGETDALVAEKAKRLLEEGITPILCVGEPLEVREKGEAVPYTLRQLRGSLEGVEPPGPEALVIAYEPVWAIGTGKNATPEDAEAMHQAIRKALSERYGEAFASRVRILYGGSVNPKNFADLLSMPNVDGGLVGGASLELESFLALLRIAG
notes: recombinant, E. coli BL21(DE3)pLysS, pET-3aHIS (His tag), purified; dimer plus higher aggregates
Protein B2 has a Km [2] of 60 ± 10 µM, a kcat [2] of 1788 ± 0.9 s⁻¹ and a kcat/Km [2] of 3e+07 M⁻¹ s⁻¹.

B3: TcTIM (Trypanosoma cruzi) (protein)
chain: MASKPQPIAAANWKCNGSESLLVPLIETLNAATFDHDVQCVVAPTFLHIPMTKARLTNPKFQIAAQNAITRSGAFTGEVSLQILKDYGISWVVLGHSERRLYYGETNEIVAEKVAQACAAGFHVIVCVGETNEEREAGRTAAVVLTQLAAVAQKLSKEAWSRVVIAYEPVWAIGTGKVATPQQAQEVHELLRRWVRSKLGTDIAAQLRILYGGSVTAKNARTLYQMRDINGFLVGGASLKPEFVEIIEATK
notes: recombinant, E. coli BL21(DE3)pLysS, pET-3a, purified; dimer plus higher aggregates
B3 was tested, and the Km [3] was 440 ± 50 µM, the kcat [3] was 6000 ± 230 s⁻¹ and the kcat/Km [3] was 1.36e+07 M⁻¹ s⁻¹.

B4: TbTIM (Trypanosoma brucei brucei) (protein)
chain: MSKPQPIAAANWKCNGSQQSLSELIDLFNSTSINHDVQCVVASTFVHLAMTKERLSHPKFVIAAQNAIAKSGAFTGEVSLPILKDFGVNWIVLGHSERRAYYGETNEIVADKVAAAVASGFMVIACIGETLQERESGRTAVVVLTQIAAIAKKLKKADWAKVVIAYEPVWAIGTGKVATPQQAQEAHALIRSWVSSKIGADVAGELRILYGGSVNGKNARTLYQQRDVNGFLVGGASLKPEFVDIIKATQ
notes: as for B3
Work on B4 yielded a Km [4] of 450 ± 50 µM, a kcat [4] of 5170 ± 117 s⁻¹ and a kcat/Km [4] of 1.15e+07 M⁻¹ s⁻¹.

B5: EhTIM (Entamoeba histolytica HM-1:IMSS) (protein)
chain: MSARKFVVGGNWKCNGTLASIETLTKGVAASVDAELAKKVEVIVGVPFIYIPKVQQILAGEANGANILVSAENAWTKSGAYTGEVHVGMLVDCQVPYVILGHSERRQIFHESNEQVAEKVKVAIDAGLKVIACIGETEAQRIANQTEEVVAAQLKAINNAISKEAWKNIILAYEPVWAIGTGKTATPDQAQEVHQYIRKWMTENISKEVAEATRIQYGGSVNPANCNELAKKADIDGFLVGGASLDAAKFKTIINSVSEKF
notes: recombinant, E. coli BL21(DE3)pLysS, plasmid given as pRET, purified; dimer plus higher aggregates
B5 gave a Km [5] of 140 ± 30 µM, a kcat [5] of 3650 ± 254 s⁻¹ and a kcat/Km [5] of 2.5e+07 M⁻¹ s⁻¹.

B6: LmTIM (Leishmania mexicana) (protein)
chain: MSAKPQPIAAANWKCNGTTASIEKLVQVFNEHTISHDVQCVVAPTFVHIPLVQAKLRNPKYVISAENAIAKSGAFTGEVSMPILKDIGVHWVILGHSERRTYYGETDEIVAQKVSEACKQGFMVIACIGETLQQREANQTAKVVLSQTSAIAAKLTKDAWNQVVLAYEPVWAIGTGKVATPEQAQEVHLLLRKWVSENIGTDVAAKLRILYGGSVNAANAATLYAKPDINGFLVGGASLKPEFRDIIDATR
notes: as for B2
B6 was tested, and the Km [6] was 470 ± 10 µM, the kcat [6] was 2800 ± 164 s⁻¹ and the kcat/Km [6] was 5.9e+06 M⁻¹ s⁻¹.

B7: PfTIM (Plasmodium falciparum) (protein)
chain: MARKYFVAANWKCNGTLESIKSLTNSFNNLDFDPSKLDVVVFPVSVHYDHTRKLLQSKFSTGIQNVSKFGNGSYTGEVSAEIAKDLNIEYVIIGHFERRKYFHETDEDVREKLQASLKNNLKAVVCFGESLEQREQNKTIEVITKQVKAFVDLIDNFDNVILAYEPLWAIGTGKTATPEQAQLVHKEIRKIVKDTCGEKQANQIRILYGGSVNTENCSSLIQQEDIDGFLVGNASLKESFVDIIKSAM
notes: recombinant, E. coli BL21(DE3)pLysS, pTRC99A, purified (extra low-mass band on SDS-PAGE); dimer plus higher aggregates
For B7, the Km [7] was 810 ± 40 µM, the kcat [7] was 5846 ± 39 s⁻¹ and the kcat/Km [7] was 7.3e+06 M⁻¹ s⁻¹.

B8: TsTIM (Taenia solium) (protein)
chain: MTRKLFVGGNWKMNGSYSHINTFFDTLQKADTDPNADIVIGVPACYLKYAQDKAPKGIKIAAENCYKVGSGAFTGEISTEMIKDCGCEWVILGHSERRHIFGESNELIGEKVKHALDSGLNVIPCIGELLSEREAGKTNDVCFAQMDAIAKNVPSKEAWDKVVIAYEPVWAIGTGKTATPAQAQEVHKVVRDWIRKHVDAGIADKVRILYGGSVTASNAKDLGTQPDVDGFLVGGASLKPDFITIINARR
notes: recombinant, E. coli BL21(DE3)pLysS, pRSET (His tag), purified; dimer plus higher aggregates
B8 showed a Km [8] of 520 ± 30 µM, a kcat [8] of 2460 ± 101 s⁻¹ and a kcat/Km [8] of 4.7e+06 M⁻¹ s⁻¹.
